In patent US8067376B2, “Pharmaceutical compositions for transdermal delivery” (Forhumantech Co., Ltd., priority 2004, dated 2011):
Entries after “also recorded” stand apart in the source; their conditions may differ. Ends that are not written are not given here.

Assays:
HeCaT cell line = experiment: Cell proliferation-inhibitory effect by WST-1 assay; format: cell-based; conditions: 0.2, 1.5, 4.4, 13.3 and 40 μM, after 2 days
From the text: In this Example, the cell proliferation-inhibitory effect of PTD-MTX was observed by WST-1 assay (Roche Biochemical) in vitro.
To analyze the cell proliferation-inhibitory effect of PTD-MTX, a HeCaT cell line (obtained from the Department of Dermatology, College of Medicine, Chungnam National University, Korea) was used to analyze cell death. For this purpose, […] were inoculated into DMEM medium (10% FCS, antibiotics (GIBCO)) on a 96-well plate and cultured overnight. To the culture medium, MTX alone, PTD-MTX and PTD-ACA-MTX conjugates prepared in Example 1 were added with concentrations of 0.2, 1.5, 4.4, 13.3 and 40 μM respectively. After 2 days, the inhibition of proliferation of the cells was analyzed by the WST-1 assay.
In the WST-1 assay, tetrazolium salt is present in the respiratory chain of mitochondria and cleaved into a formazan dye by succinate-tetrazolium-reductase having activity only for viable cells, and if the number of viable cells increases, the entire activity of mitochondria dehydrogenase in a sample will increase. Since this increase in enzymatic activity induces an increase in the production of formazan dye, the formazan dye will show a linear correlation with the number of metabolically active cells in medium. The absorbance of the dye solution was measured with an ELISA reader to quantify the formazan dye produced by the metabolically active cells so as to observe cell proliferation ability and cell viability.

Sprague Dawley rats = experiment: Toxicity test by single subcutaneous administration to rats; format: in vivo, rat
Method: Toxicity by the single subcutaneous administration of PTD-ACA-MTX prepared in Example 1 was examined. Male and female Sprague Dawley rats (Samtako) were divided into an excipient control group administered with sterilized water for injection, and test groups administered with the inventive conjugate in amounts of 5, 50 and 500 mg/kg. Each of the animal groups consisted of 10 animals (five males and five females) and observed for mortality for 2 weeks, general symptoms, bodyweight change, and autopsy findings. All the test methods were performed according to toxicity test standards provided by the Korea Food and Drug Administration, and the test results are as follows.

[1] = system: New Zealand White rabbits; experiment: Skin irritation test in rabbits; format: in vivo, rabbit; conditions: healthy and scratch skin
Method: The skin irritability of the inventive conjugate was examined. The inventive conjugate was applied to the healthy skin and scratch skin of New Zealand White rabbits, which were then evaluated comparatively with the healthy skin and scratch skin to which the inventive conjugate had not been applied.

DBA/1J mice = experiment: Arthritis animal model (rheumatoid arthritis induced by II-type collagen); format: in vivo, mouse
Method: For in vivo verification of the pharmacological effects of the PTD-ACA-MTX conjugate, DBA/1J mice (obtained from Samtako) were injected with e II-type collagen (obtained from Sigma) to induce rheumatoid arthritis. The mice were divided into a group for intraperitoneal (I.P.) injection of the PTD-ACA-MTX conjugate prepared in Example 1, a group for transdermal administration of the PTD-ACA-MTX conjugate prepared in Example 1, and a group for intraperitoneal (I.P.) injection of MTX alone. For the groups for intraperitoneal (I.P.) injection, MTX was injected in a dosage of 0.3 mg/kg for 4 weeks, and for the group for transdermal administration, a cream-type composition consisting of 5 wt %, based on the weight of the composition, of ethanol, 15 wt % of liquid paraffin, 40 wt % of Vaseline, 0.1 wt % of the PTD-ACA-MTX conjugate, 10 wt % of glycerin and 30 wt % of polyethylene glycol was prepared and then applied on rheumatoid arthritis-induced sites four times weekly. After treatment with the drugs, the arthritis index was monitored one time each week, and after 4 weeks, the animals were sacrificed and the IL-4, IL-6, TNF-α and arthritis factor levels in the blood were measured (see FIGS. 7, 8 and 9; results obtained using PTD of SEQ ID NO: 2 are not shown in the drawings). In FIGS. 7, 8 and 9, N: normal mice; CT: mice having rheumatoid arthritis induced by injection of collagen; M1: the group injected intraperitoneally with MTX alone; M2: the group injected intraperitoneally with PTD-ACA-MTX; and M3: the group for which the ointment preparation containing the PTD-ACA-MTX conjugate was administered transdermally.

beagle dogs = experiment: Toxicity test by single subcutaneous administration to beagle dogs; format: in vivo, dog
Method: Toxicity caused by single subcutaneous administration of the inventive conjugate was examined. Male and female beagle dogs were administered subcutaneously with the inventive conjugate in each of amounts of 4, 20 and 100 mg/kg. Each of the animal groups consisted of four animals (2 males and 2 females) and observed for mortality for 2 weeks, general symptoms, bodyweight change, and autopsy findings. All the test methods were performed according to toxicity test standards provided by the Korea Food and Drug Administration, and the test results are as follows.

[2] = Prior enzyme test of PTD-MTX conjugate versus MTX alone; format: biochemical; conditions: prior enzyme test results
[3] = 500 mg/kg, male and female animals

For `CN(Cc1cnc2nc(N)nc(N)c2n1)c1ccc(C(=O)N[C@@H](CCC(=O)O)C(=O)O)cc1` [MTX alone, methotrexate, reference compound], the “cell proliferation-inhibitory effect (rank order)” value (HeCaT cell line) was “followed by the MTX-PTD conjugate and the MTX alone in that order; also recorded: MTX alone <PTD-MTX<PTD-ACA-MTX”.
In the case of “PTD-ACA-MTX (YARVRRRGPRR; also: aminocaproic acid linker, methotrexate conjugate, position not given here)”, the autopsy findings (Sprague Dawley rats; 500 mg/kg, female animals) is reported as “splenomegaly was observed”, the “autopsy findings at the administration site” value (Sprague Dawley rats; [3]) is reported as “red fluid retention and incrustation” and the general symptoms (Sprague Dawley rats; [3]) is reported as “congestion was observed starting from one day after the administration; also recorded: incrustation was observed starting from 2 days after the administration”. For the same molecule, the general symptoms (Sprague Dawley rats; 500 mg/kg, male animals) was “systemic edema was observed”, the bodyweight change (Sprague Dawley rats; 500 mg/kg, male animals, 3, 7 and 14 days after administration) was “inhibition of an increase in bodyweight” and the “mortality (animals killed by the test substance)” value (Sprague Dawley rats; 5, 50 and 500 mg/kg single s.c., 2 weeks) was “not observed”. The general symptoms (Sprague Dawley rats; 4 days to 6 days after administration, group not clearly stated (500 mg/kg context)) was “Diarrhea and soft feces were sporadically observed”, the “minimum lethal dose (MLD)” value (Sprague Dawley rats; single subcutaneous administration, rats) was “more than 500 mg/kg” and the skin irritability classification [1] was “non-irritating substance”. For the same molecule, the skin irritation index [1] was “zero”, the “inflammatory cells which have penetrated inflammatory sites (tissue photographs)” value (DBA/1J mice; after treatment, H&E and M-T staining) was “greatly decreased” and the “amount of inflammation-mediating cytokine TNF-α” value (DBA/1J mice; blood, after 4 weeks of treatment) was “greatly decreased”. For the same molecule, the “pharmacological effect in arthritis animal model” value (DBA/1J mice; group M3, transdermal ointment, compared with M2 (I.P. MTX-ACA-PTD) and M1 (I.P. MTX alone)) was “substantially the same effect”, the “cell proliferation-inhibitory effect (rank order)” value (HeCaT cell line) was “MTX alone <PTD-MTX<PTD-ACA-MTX” and the “cell proliferation-inhibitory effect (rank order)” value (HeCaT cell line; listed as MTX-ACA-PTD conjugate) was “highest inhibitory effect”. The bodyweight change (beagle dogs; 100 mg/kg, male and female animals, 3 days after administration) was “temporary inhibition of an increase in bodyweight”, the general symptoms (beagle dogs; 100 mg/kg, males, anorexia 2 to 4 days, diarrhea 3 days after administration, listed as inventive conjugate) was “anorexia was observed; also recorded: diarrhea was observed” and the general symptoms (beagle dogs; 100 mg/kg, one male and female, starting from 1 hour after administration) was “reduction in spontaneous motility was observed”. For the same molecule, the autopsy findings (beagle dogs; 4, 20 and 100 mg/kg single s.c.) was “abnormal findings were not observed”, the “mortality (animals killed by the test substance)” value (beagle dogs; 4, 20 and 100 mg/kg single s.c., 2 weeks) was “No animal killed by the test substance was observed” and the general symptoms (beagle dogs; groups with more than 20 mg/kg, males and females, 1 hour to 6 hours after administration) was “eyelid edema was observed”. For the same molecule, the general symptoms (beagle dogs; one male of 20 mg/kg group and one female of 100 mg/kg group) was “edema and a reduction in spontaneous motility were continued up to 2 days after administration” and the minimum lethal dose (beagle dogs; single subcutaneous administration, beagle dogs, both males and females) was “over 100 mg/kg”.
For “PTD-MTX (YARVRRRGPRR-NH2; not fully specified (N-terminus); also: methotrexate conjugate)”, the “effect in enzyme test compared to MTX alone” value [2] was “low effects compared to MTX alone” and the “cell proliferation-inhibitory effect (rank order)” value (HeCaT cell line) was “MTX alone <PTD-MTX<PTD-ACA-MTX”.
